This note sets out measurements from paper PMC6505963.

Data set [1] has as its target BLM RQC (GST-free) (human, UniProt P54132 1068-1209). Description: fluorescence polarization; FP: 10 mM Tris-HCl pH 7.5, 25 mM NaCl, 1 mM DTT, 100 pM DNA, 25 C; EMSA: 10 mM Tris-HCl pH 8.0, 2 mM DTT, 1 mM EDTA, 20% glycerol, 0.2 uM DNA, 4 C, 30 min, 7.5%. On the technique in general: Fluorescence polarisation rises when a labelled molecule tumbles more slowly, as on binding a larger partner.

The target in data set [2] is GST-BLM RQC R1139A (human, UniProt P54132 1068-1209, R1139A). Description: EMSA; FP: 10 mM Tris-HCl pH 7.5, 25 mM NaCl, 1 mM DTT, 100 pM DNA, 25 C; EMSA: 10 mM Tris-HCl pH 8.0, 2 mM DTT, 1 mM EDTA, 20% glycerol, 0.2 uM DNA, 4 C, 30 min, 7.5%. (A gel shift assay detects complexes by their altered migration in electrophoresis.)
Chain of GST-BLM RQC R1139A (P54132 1068-1209 R1139A): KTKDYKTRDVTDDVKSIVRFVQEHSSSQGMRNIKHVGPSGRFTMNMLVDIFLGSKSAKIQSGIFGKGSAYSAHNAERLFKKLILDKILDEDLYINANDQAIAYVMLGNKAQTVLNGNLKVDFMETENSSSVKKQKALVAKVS
Data set [3] has as its target GST-BLM RQC K1125A (human, UniProt P54132 1068-1209, K1125A). Described as above.
Data set [4] has as its target GST-BLM RQC S1121A (human, UniProt P54132 1068-1209, S1121A). The description is as above.
For data set [5], the target named is GST-BLM RQC (human, UniProt P54132 1068-1209). Description: EMSA; 1, 5, 10 uM protein; FP: 10 mM Tris-HCl pH 7.5, 25 mM NaCl, 1 mM DTT, 100 pM DNA, 25 C; EMSA: 10 mM Tris-HCl pH 8.0, 2 mM DTT, 1 mM EDTA, 20% glycerol, 0.2 uM DNA, 4 C, 30 min, 7.5%.
Chain of GST-BLM RQC (P54132 1068-1209): as the sequence (P54132 1068-1209 R1139A) above, with A72R counted along it

Chain of BLM RQC (GST-free) (P54132 1068-1209): as the sequence (P54132 1068-1209 R1139A) above, with A72R counted along it
Chain of GST-BLM RQC K1125A (P54132 1068-1209 K1125A): as the sequence (P54132 1068-1209 R1139A) above, with K58A, A72R counted along it
Chain of GST-BLM RQC S1121A (P54132 1068-1209 S1121A): as the sequence (P54132 1068-1209 R1139A) above, with S54A, A72R counted along it

B1: forked duplex (dsDNA)
DNA 1: TTTTTTTTTTAGGGCATGCACTAC
DNA 2: GTAGTGCATGCCCTAATTTTTTTT
The Kd is the equilibrium constant for the complex coming apart. Take B1: in data set [1], the dissociation constant (Kd) is around 0.7 µM.

B2: Holliday junction (HJ) (structured_DNA)
DNA 1: CTAGAACAGCATGTCCTAGCAAGCCAGAATTC
DNA 2: GAATTCTGGCTTGCTAGGACATCTTTGCCCAC
DNA 3: GTGGGCAAAGATGTCCTAGCAATGTAATCGTC
DNA 4: GACGATTACATTGCTAGGACATGCTGTTCTAG
On to B2, for which the binding signal is ~70 % loss of binding vs wild type in data set [2], ~50 % loss of binding vs wild type in data set [3] and ~10 % loss of binding vs wild type in data set [4]. For the same molecule, the binding result in data set [5] is “binds”.
